Measurements reported in IntAct's records for PubMed 31515488.

B1: Keratin-associated protein 12-2 (Homo sapiens), P59991 (parent)
chain: MCHTSCSSGCQPACCAPSPCQPACCVPSSCQASCCVPVGCQSSVCVPVSFKPAVCLPVSCQSSVCVPMSFKSAVCVPVSCQSSVCVPVSCRPIVCAAPSCQSSLCVPVSCRPVVYAAPSCQSSGCCQPSCTSVLCRPISYSISSCC
partner: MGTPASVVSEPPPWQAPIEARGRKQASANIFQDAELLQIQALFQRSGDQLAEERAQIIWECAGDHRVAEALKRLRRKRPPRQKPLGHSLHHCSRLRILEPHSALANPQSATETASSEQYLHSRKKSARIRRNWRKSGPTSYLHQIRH
B2: Radial spoke head 1 homolog (Homo sapiens), Q8WYR4 (parent)
chain: MSDLGSEELEEEGENDIGEYEGGRNEAGERHGRGRARLPNGDTYEGSYEFGKRHGQGIYKFKNGARYIGEYVRNKKHGQGTFIYPDGSRYEGEWANDLRHGHGVYYYINNDTYTGEWFAHQRHGQGTYLYAETGSKYVGTWVNGQQEGTAELIHLNHRYQGKFLNKNPVGPGKYVFDVGCEQHGEYRLTDMERGEEEEEEELVTVVPKWKATQITELALWTPTLPKKPTSTDGPGQDAPGAESAGEPGEEAQALLEGFEGEMDMRPGDEDADVLREESREYDQEEFRYDMDEGNINSEEEETRQSDLQD
partner: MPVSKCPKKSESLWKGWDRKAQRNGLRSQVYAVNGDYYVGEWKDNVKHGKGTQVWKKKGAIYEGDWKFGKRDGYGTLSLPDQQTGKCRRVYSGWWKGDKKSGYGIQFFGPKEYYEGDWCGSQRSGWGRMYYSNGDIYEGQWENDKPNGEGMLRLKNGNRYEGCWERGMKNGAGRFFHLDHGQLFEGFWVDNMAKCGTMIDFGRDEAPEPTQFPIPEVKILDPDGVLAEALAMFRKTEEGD
B3: DCC-interacting protein 13-alpha (Homo sapiens), Q9UKG1 (parent)
chain: MPGIDKLPIEETLEDSPQTRSLLGVFEEDATAISNYMNQLYQAMHRIYDAQNELSAATHLTSKLLKEYEKQRFPLGGDDEVMSSTLQQFSKVIDELSSCHAVLSTQLADAMMFPITQFKERDLKEILTLKEVFQIASNDHDAAINRYSRLSKKRENDKVKYEVTEDVYTSRKKQHQTMMHYFCALNTLQYKKKIALLEPLLGYMQAQISFFKMGSENLNEQLEEFLANIGTSVQNVRREMDSDIETMQQTIEDLEVASDPLYVPDPDPTKFPVNRNLTRKAGYLNARNKTGLVSSTWDRQFYFTQGGNLMSQARGDVAGGLAMDIDNCSVMAVDCEDRRYCFQITSFDGKKSSILQAESKKDHEEWICTINNISKQIYLSENPEETAARVNQSALEAVTPSPSFQQRHESLRPAAGQSRPPTARTSSSGSLGSESTNLAALSLDSLVAPDTPIQFDIISPVCEDQPGQAKAFGQGGRRTNPFGESGGSTKSETEDSILHQLFIVRFLGSMEVKSDDHPDVVYETMRQILAARAIHNIFRMTESHLLVTCDCLKLIDPQTQVTRLTFPLPCVVLYATHQENKRLFGFVLRTSSGRSESNLSSVCYIFESNNEGEKICDSVGLAKQIALHAELDRRASEKQKEIERVKEKQQKELNKQKQIEKDLEEQSRLIAASSRPNQASSEGQFVVLSSSQSEESDLGEGGKKRESEA
partner: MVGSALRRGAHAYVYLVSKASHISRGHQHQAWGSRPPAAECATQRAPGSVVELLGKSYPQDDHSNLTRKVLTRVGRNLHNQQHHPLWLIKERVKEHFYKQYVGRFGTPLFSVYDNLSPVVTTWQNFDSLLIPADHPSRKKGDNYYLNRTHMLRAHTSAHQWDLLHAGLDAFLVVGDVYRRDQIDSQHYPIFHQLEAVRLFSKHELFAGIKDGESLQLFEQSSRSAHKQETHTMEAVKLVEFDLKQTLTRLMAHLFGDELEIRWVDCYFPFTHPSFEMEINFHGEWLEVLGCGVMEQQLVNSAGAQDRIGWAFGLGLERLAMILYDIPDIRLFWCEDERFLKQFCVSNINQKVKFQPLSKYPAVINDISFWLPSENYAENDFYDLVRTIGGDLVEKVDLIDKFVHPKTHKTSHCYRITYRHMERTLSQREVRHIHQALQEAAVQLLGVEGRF

Variants of: B1
Conditions: with avpi1_human AVPI1, Q5T686

| Variant | effect of a mutation on the interaction |
| --- | --- |
| A16T | with no effect |
| S143P | with no effect |

Variants of: B2
Conditions: with morn3_human MORN3, Q6PF18

| Variant | effect of a mutation on the interaction |
| --- | --- |
| G248R | with no effect |
| G144R | with no effect |

Variants of: B3
Conditions: with syfm_human FARS2, O95363

| Variant | effect of a mutation on the interaction |
| --- | --- |
| E67G | with no effect |
| E643Q | with no effect |
